From US20160355587A1

Target: human CD166 on human cells or tissue (human) (UniProt Q13740)
Assay: inhibition of adhesion of CD166-expressing HuT-78 cells to immobilized recombinant CD6

Sequence of human CD166 on human cells or tissue (human) (Q13740 28-583): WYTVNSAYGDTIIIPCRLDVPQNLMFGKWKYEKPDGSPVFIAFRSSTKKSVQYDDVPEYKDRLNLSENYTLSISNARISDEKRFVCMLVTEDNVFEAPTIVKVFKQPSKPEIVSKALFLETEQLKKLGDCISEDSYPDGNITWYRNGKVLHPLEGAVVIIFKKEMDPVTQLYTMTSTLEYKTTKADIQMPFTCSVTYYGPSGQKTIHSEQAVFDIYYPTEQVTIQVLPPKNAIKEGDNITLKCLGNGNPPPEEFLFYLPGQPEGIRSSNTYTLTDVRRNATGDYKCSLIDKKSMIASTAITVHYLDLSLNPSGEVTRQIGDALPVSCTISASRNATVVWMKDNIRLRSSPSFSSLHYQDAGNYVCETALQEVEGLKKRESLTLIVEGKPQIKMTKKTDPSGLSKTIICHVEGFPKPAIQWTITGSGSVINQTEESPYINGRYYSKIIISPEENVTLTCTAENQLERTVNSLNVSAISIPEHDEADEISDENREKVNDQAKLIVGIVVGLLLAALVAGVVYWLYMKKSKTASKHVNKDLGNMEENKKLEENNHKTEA

MAB656 (antibody)
EC50: 3.7 nM
